From US20090175866A1, “TREATMENT OF B-CELL MALIGNANCIES” (priority 2004, published 2009)

Tests used:
FGFR3-Y373C = biological target: T1, FGFR3-Y373C (Homo sapiens, UniProt P22607, Y373C); test: FGF-stimulated growth of B9 cells expressing Y373C-FGFR3; format: cell-based
T1 construct: expressed in transfected cells; host or cells: B9 cells
Experimental: (§1) Non-transformed rat chondrocyte cell line expressing PGFR3 in an inducible manner (RCJ-FGFR3) has been described previously (Rauchenberger R. et al. J. Biol. Chem. 2003; 278:38194-205). Cells were maintained in α-Minimum Essential Media supplemented with 15% fetal calf serum (FCS), 2 mM L-Glutamine, 100 U/ml penicillin, 100 μg/ml streptomycin, 600 μg/ml G418 (Gibco BRL, Ontario, Canada), 2 μg/ml Tetracyclin (Sigma, Ontario, Canada), and 50 μg/ml HygromycinB (Gibco BRL). FGFR3 expression was induced by removal of tetracyclin and serum starvation. […]
(§2) Cell viability was assessed by 3-(4,5-dimethylthiazol)-2,5-diphenyl tetrazolium (MTT) or (2,3-bis(2-methoxy-4-nitro-5-sulphophenyl)-5-[(phenylamino) carbonyl]-2H-tetrazolium hydroxide (XTT) dye absorbance where indicated. Cells were seeded in 96-well plates at a density of 20,000 (FDCP-1 cells), 5,000 (B9 cells) or 25,000 cells (MM cell lines) per well in culture medium. Cells were incubated in the absence or presence of one of the following cytokines: 10 ng/ml FGF9 and 5 μg/ml heparin, 1% murine IL-6, 50 ng/ml IGF-1 or 50 ng/ml human IL-6 where indicated and increasing concentrations of PRO-001, control antibody (purified human Fab) or 100 nM PD173074. […]

FDCP-FGFR3^S249C cells = test: FDCP-FGFR3^S249C xenograft tumor model in nude mice; format: in vivo; conditions: PRO-001 Fab I.P.
Experimental: FIG. 8B is a graph showing the effect of PRO-001 on an FGFR3-driven xenograft tumor model. Nude mice (3 in each group), were injected S.C. at 2 locations, one on each flank (a—right flank, b—left flank), with 2×10^6 FDCP-FGFR3^S249C cells each. A week later, mice were randomized to receive PRO-001 by I.P. injection according to the schedule described in Table I or PBS as control. Tumor volume was estimated from measurements in 3 dimensions at 22 or 29 days post cell injection.
FDCP-FGFP3^S249C cells were washed 3 times in PBS then resuspended at 2×10^6 cells/200 μl PBS. The cells were injected subcutaneously (S.C.) to CD1 nude adult females (Harlan, Laboratories, Israel) with a 25 G needle at one or both mouse flanks. Treatment was initiated one week post cell inoculation at which time mice were randomized to receive PRO-001 or an equal volume of PBS alone. Dosing was preformed twice weekly by intraperitoneal (I.P.) injection for 3 weeks. Mice were followed every 2-4 days and developing tumors were measured at 3 dimensions using a caliper. Tumor volume was estimated by multiplying these 3 values.
Nude mice were injected subcutaneously at 2 locations; one on each flank, with 2×10^6 FDCP-FGFR3^S249C cells each. One week post cell injection, mice were treated with PRO-001 Fab. […]

UTMC2 cells = test: Viability of stimulated UTMC2 myeloma cells (MTT); format: cell-based, human
Experimental: FIG. 2 is a graph showing the viability of human myeloma cell lines in the presence of PRO-001. Viability is reported as the ratio between the optical density (OD) in the presence of FGF±inhibitor and the OD in the absence of FGF.
FIG. 4 is a graph showing viability of UTMC2 cells treated with FGF, IL6 or IGF-1. The dark bars represent stimulated cells treated with a control antibody; the dotted bar represents stimulated cells treated with 5 μg/ml PRO-001; the square-filled bar represents stimulated cells treated with 100 nM PD173074.
as §1, §2
PRO-001 was tested against t (4; 14) myeloma cell lines expressing FGFR3: UTMC2 cells—expressing WT FGFR3, and H929 cells—expressing WT FGFR3 but harboring a downstream activating mutation of N-Ras. Cell growth in the presence of FGF and PRO-001 (5 μg/ml), control antibody (isotype) or 100 nM PD173074 was determined by MTT assay. […]

T1 sequence (P22607 23-806 Y373C): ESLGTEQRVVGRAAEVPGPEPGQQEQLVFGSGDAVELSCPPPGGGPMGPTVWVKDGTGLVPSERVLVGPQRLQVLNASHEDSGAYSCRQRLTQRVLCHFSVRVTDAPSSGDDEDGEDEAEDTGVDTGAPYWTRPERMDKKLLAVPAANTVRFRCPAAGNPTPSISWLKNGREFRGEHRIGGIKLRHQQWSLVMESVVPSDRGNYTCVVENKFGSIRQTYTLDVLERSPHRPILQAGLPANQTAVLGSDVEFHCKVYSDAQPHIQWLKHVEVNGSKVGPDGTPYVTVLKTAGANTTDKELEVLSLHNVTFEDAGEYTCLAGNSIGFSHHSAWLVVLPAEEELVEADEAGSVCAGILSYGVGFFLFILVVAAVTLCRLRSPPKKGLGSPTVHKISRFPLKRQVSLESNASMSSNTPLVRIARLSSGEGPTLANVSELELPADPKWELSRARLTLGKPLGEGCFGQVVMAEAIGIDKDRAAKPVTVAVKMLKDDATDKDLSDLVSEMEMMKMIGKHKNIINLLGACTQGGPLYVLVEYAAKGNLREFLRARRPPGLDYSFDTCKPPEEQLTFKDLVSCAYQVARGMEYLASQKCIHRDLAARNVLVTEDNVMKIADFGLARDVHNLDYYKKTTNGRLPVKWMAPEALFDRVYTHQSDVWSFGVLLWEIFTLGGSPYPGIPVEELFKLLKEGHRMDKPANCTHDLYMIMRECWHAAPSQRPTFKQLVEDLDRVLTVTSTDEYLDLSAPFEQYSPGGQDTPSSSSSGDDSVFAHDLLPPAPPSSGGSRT

B1: PRO-001: human anti-FGFR3 Fab from HuCAL library; VH-CDR3 SEQ ID NO:1, VL-CDR3 SEQ ID NO:10; VH SEQ ID NO:19, VL SEQ ID NO:28 (antibody, V domains shown)
VH: QVQLQQSGPGLVKPSQTLSLTCAISGDSVSSNSAAWNWIRQSPGRGLEWLGRTYYRSKWYNDYAVSVKSRITINPDTSKNQFSLQLNSVTPEDTAVYYCARSYYPDFDYWGQGTLVTVSS
VL: DIELTQPPSVSVAPGQTARISCSGDALGDKYASWYQQKPGQAPVLVIYDDSDRPSGIPERFSGSNSGNTATLTISGTQAEDEADYYCQSYDGPDLWVFGGGTKLTVLGQ
IC50, FGF-stimulated growth of cells expressing Y373C-FGFR3 (FGFR3-Y373C): approximately 3 μg/ml
Tumor growth relative to control mice (FDCP-FGFR3^S249C cells; four weeks post cell injection, 400-275 μg per dose): 10%
Toxicities and weight loss over the treatment period (FDCP-FGFR3^S249C cells; nude mice): No major toxicities or significant weight loss
Viability of UTMC2 cells stimulated with IGF-1 (UTMC2 cells; 5 μg/ml PRO-001): remain sensitive
Viability of UTMC2 cells stimulated with IL6 (UTMC2 cells; 5 μg/ml PRO-001): remain sensitive
Proliferation of FGF-stimulated UTMC2 cells (UTMC2 cells; 5 μg/ml, MTT): significantly inhibited
